{"source": "patent US20220145339A1", "about": "“METHOD FOR PREPARATION OF PRIMARY AMINE COMPOUNDS” (Max-Planck-Gesellschaft zur Förderung der Wissenschaften …, priority 2018, published 2022)", "molecules": {"B1": {"name": "iminosuccinate reductase from Paracoccus denitrificans DSM 413 (enzyme)", "chain": "MLVVAEKEIAGLMTPEAAFEAIEAVFASMARRKAYNFPVVREAIGHEDALYGFKGGFDASALVLGLKAGGYWPNNQKHNLINHQSTVFLFDPDTGRVSAAVGGNLLTALRTAAASAVSIKYLAPKGAKVLGMIGAGHQSAFQMRAAANVHRFEKVIGWNPHPEMLSRLADTAAELGLPFEAVELDRLGAEADVIVSITSSFSPLLMNEHVKGPTHIAAMGTDTKGKQELDPALVARARIFTDEVAQSVSIGECQHAIAAGLIREDQVGELGAVVAGDDPGRGDAEVTIFDGTGVGLQDLAVAQAVVELAKHKGVAQEVEI", "notes": "Recombinant enzyme expressed in E. coli BL21 AI from pET16b and purified on Ni-NTA; It was crystallised, soaked with NAD+, and is described as a homodimer (PDB ID 6QKH); also called ISRed; IRed; not shown: N-terminal His tag and Factor Xa site from vector pET16b"}, "B2": {"name": "ISRed: imine reductase enzyme from Paracoccus denitrificans DSM 413, amino acid sequence SEQ ID NO: 434, expressed in E. coli (protein)", "chain": "B1 chain", "modifications": "Paracoccus denitrificans DSM 413"}}, "key": {"[1]": {"conditions": "aqueous solution, hydrolyzes to oxaloacetate; calculated from data of Mortarino et al., 1996; cited from earlier work"}, "[2]": {"target": "the molecule itself", "experiment": "X-ray crystal structure, self-association (homodimer)"}, "[3]": {"experiment": "ISRed enzyme assay coupled with BHAD, NADH oxidation followed at 340 nm", "format": "biochemical, Paracoccus denitrificans DSM 413", "method": "The enzyme assay to generate aspartate from β-hydroxyaspartate (catalyzed by the BHAD and ISRed enzymes) was performed at 30° C. in a total volume of 300 μl. The reaction mixture contained 100 mM potassium phosphate pH 7.5, 1 mM BHA, 0.2 mM NADH, 0.57, 2.85, 5.7 or 11.4 μg BHAD enzyme and 0.57 μg ISRed enzyme. The oxidation of NADH was followed at 340 nm on a Cary 60 UV-Vis photospectrometer (Agilent) in quartz cuvettes with a pathlength of 10 mm (Hellma Analytics). BHA (=(2R,3S)-β-hydroxyaspartate) was custom-synthesized by the company NewChem (Newcastle upon Tyne, United Kingdom), and was determined to be >95% pure by NMR analysis.\nThe enzyme assay to determine the initial reaction velocity of the ISRed enzymes was performed by incubating BHA and the required cofactor NADH together with a fixed amount of the ISRed enzyme and varying amounts of the BHAD enzyme. The initial velocity depends on the amount of the BHAD enzyme present in the reaction mixture, and therefore on the amount of iminosuccinate that is produced by the BHAD enzyme and is available to the ISRed enzyme, as illustrated in FIG. 6. The initial reaction velocity of the ISRed enzyme approaches a maximum in a Michaelis-Menten kinetic fit. The preliminary vmax of the ISRed enzyme determined by this method is 270±10 U mg^−1."}}}
{"molecule": "N=C(CC(=O)O)C(=O)O", "note": "[iminosuccinate]", "values": [{"measurement": "t1/2", "setting": "[1]", "value": 1.48, "unit": "s"}]}
{"molecule": "B1", "values": [{"measurement": "binding result", "setting": "[2]", "value": "binds"}]}
{"molecule": "B2", "values": [{"measurement": "reaction catalyzed", "setting": "[3]; 1 mM BHA, 0.2 mM NADH, BHAD and ISRed enzymes, 30° C., potassium phosphate pH 7.5", "value": "catalyzes the conversion of iminosuccinate into L-aspartate"}, {"measurement": "vmax", "setting": "[3]; iminosuccinate synthesized in situ from BHA with varying amounts of BHAD enzyme, cofactor NADH, Michaelis-Menten fit, preliminary, n=1", "value": "270±10", "unit": "U mg^−1"}]}
